Assay results: paper PMC4132065 (2014)

B1: LexA BD-Pxa2_NBD-CT [S. cerevisiae] / Gal4 AD-Pxa1_NBD-CT [S. cerevisiae] (parent complex)
chain 1: GNDMTADFITNRRLLVTASSSIGRFVELKRNIQQLRGIRLRLNKFNDLLDANKGDDEKEPRDERCIVEYDDSRIKFENIPLITPANQVLVPELSFDLKHGNHLLIIGPNGCGKSSLFRILGGLWPIRATPNKNHQSKLIMPRRTVDRDCAIFYLPQRPYMGNRSTFREQIIYPDSIEQFKERYHNDYDLGDADLIKILQLLDLEDLVTENMSLLLAQRTSKNDSQQLSTEDNQSPCAIKVRDAFSIVRNWSEELTIGVQQRLAMARMYYHKPKFAVLDECTSAVAPEMEQRMYENAQNFGISLISVCHRTSLWHFHNYLLKFDGKGGYQFGPFNPKERLCNEEKLLELNAILDQQVPLWERKLKDLTIAKESNIIRKSETNLNLFEKIEDPKTSKSNALFNANKGQRITSPTGQETSKRLPLFSQPSSSASSNLLRNNKSLNKKVKTKKEEGKER
chain 2: SRLMHSIKDISQLTGYTNRIFTLLSVLHRVHSLNFNYGAVPSILSIRTEDASRNSNLLPTTDNSQDAIRGTIQRNFNGIRLENIDVIIPSVRASEGIKLINKLTFQIPLHIDPITSKSNSIQDLSKANDIKLPFLQGSGSSLLILGPNGCGKSSIQRIIAEIWPVYNKNGLLSIPSENNIFFIPQKPYFSRGGTLRDQIIYPMSSDEFFDRGFRDKELVQILVEVKLDYLLKRGVGLTYLDAIADWKDLLSGGEKQRVNFARIMFHKPLYVVLDEATNAISVDMEDYLFNLLKRYRFNFISISQRPTLIKYHEMLLEIGENRDGKWQLQAVGTDEAITSIDNEIEELERKLERVKGWEDERTKLREKLEII
B2: LexA BD-Pxa2_NBD-CT [S. cerevisiae] / Gal4 AD-Pxa1_NBD [S. cerevisiae] (parent complex)
chain 1: B1 chain 1
chain 2: SRLMHSIKDISQLTGYTNRIFTLLSVLHRVHSLNFNYGAVPSILSIRTEDASRNSNLLPTTDNSQDAIRGTIQRNFNGIRLENIDVIIPSVRASEGIKLINKLTFQIPLHIDPITSKSNSIQDLSKANDIKLPFLQGSGSSLLILGPNGCGKSSIQRIIAEIWPVYNKNGLLSIPSENNIFFIPQKPYFSRGGTLRDQIIYPMSSDEFFDRGFRDKELVQILVEVKLDYLLKRGVGLTYLDAIADWKDLLSGGEKQRVNFARIMFHKPLYVVLDE

Variants of: B1
Experiment: yeast two-hybrid, quantified with Yeast β-Galactosidase Assay Kit (Thermo); n = 3; parent: 190; read off a plot
Work on chain 1 GNDMTADFITNRRLLVTASSSIGRFVELKRNIQQLRGIRLRLNKFNDLLDANKGDDEKEPRDERCIVEYDDSRIKFENIPLITPANQVLVPELSFDLKHGNHLLIIGPNGCGKSSLFRILGGLWPIRATPNKNHQSKLIMPRRTVDRDCAIFYLPQRPYMGNRSTFREQIIYPDSIEQFKERYHNDYDLGDADLIKILQLLDLEDLVTENMSLLLAQRTSKNDSQQLSTEDNQSPCAIKVRDAFSIVRNWSEELTIGVQQRLAMARMYYHKPKFAVLDECTSAVAPEMEQRMYENAQNFGISLISVCHRTSLWHFHNYLLKFDGKGGLQFGPFNPKERLCNEEKLLELNAILDQQVPLWERKLKDLTIAKESNIIRKSETNLNLFEKIEDPKTSKSNALFNANKGQRITSPTGQETSKRLPLFSQPSSSASSNLLRNNKSLNKKVKTKKEEGKER [chain 1 Y328L] yielded a response of ~38. Work on chain 1 GNDMTADFITNRRLLVTASSSIGRFVELKRNIQQLRGIRLRLNKFNDLLDANKGDDEKEPRDERCIVEYDDSRIKFENIPLITPANQVLVPELSFDLKHGNHLLIIGPNGCGKSSLFRILGGLWPIRATPNKNHQSKLIMPRRTVDRDCAIFYLPQRPYMGNRSTFREQIIYPDSIEQFKERYHNDYDLGDADLIKILQLLDLEDLVTENMSLLLAQRTSKNDSQQLSTEDNQSPCAIKVRDAFSIVRNWSEELTIGVQQRLAMARMYYHKPKFAVLDECTSAVAPEMEQRMYENAQNFGISLISVCHRTSLWHFHNYLLKFDGKGGYQFGPANPKERLCNEEKLLELNAILDQQVPLWERKLKDLTIAKESNIIRKSETNLNLFEKIEDPKTSKSNALFNANKGQRITSPTGQETSKRLPLFSQPSSSASSNLLRNNKSLNKKVKTKKEEGKER [chain 1 F333A] yielded a response of ~69.

Variants of: B2
Experiment: yeast two-hybrid, quantified with Yeast β-Galactosidase Assay Kit (Thermo); n = 3; parent: 185; read off a plot
With chain 1 GNDMTADFITNRRLLVTASSSIGRFVELKRNIQQLRGIRLRLNKFNDLLDANKGDDEKEPRDERCIVEYDDSRIKFENIPLITPANQVLVPELSFDLKHGNHLLIIGPNGCGKSSLFRILGGLWPIRATPNKNHQSKLIMPRRTVDRDCAIFYLPQRPYMGNRSTFREQIIYPDSIEQFKERYHNDYDLGDADLIKILQLLDLEDLVTENMSLLLAQRTSKNDSQQLSTEDNQSPCAIKVRDAFSIVRNWSEELTIGVQQRLAMARMYYHKPKFAVLDECTSAVAPEMEQRMYENAQNFGISLISVCHRTSLWHFHNYLLKFDGKGGLQFGPFNPKERLCNEEKLLELNAILDQQVPLWERKLKDLTIAKESNIIRKSETNLNLFEKIEDPKTSKSNALFNANKGQRITSPTGQETSKRLPLFSQPSSSASSNLLRNNKSLNKKVKTKKEEGKER [chain 1 Y328L] the response was ~17. chain 1 GNDMTADFITNRRLLVTASSSIGRFVELKRNIQQLRGIRLRLNKFNDLLDANKGDDEKEPRDERCIVEYDDSRIKFENIPLITPANQVLVPELSFDLKHGNHLLIIGPNGCGKSSLFRILGGLWPIRATPNKNHQSKLIMPRRTVDRDCAIFYLPQRPYMGNRSTFREQIIYPDSIEQFKERYHNDYDLGDADLIKILQLLDLEDLVTENMSLLLAQRTSKNDSQQLSTEDNQSPCAIKVRDAFSIVRNWSEELTIGVQQRLAMARMYYHKPKFAVLDECTSAVAPEMEQRMYENAQNFGISLISVCHRTSLWHFHNYLLKFDGKGGYQFGPANPKERLCNEEKLLELNAILDQQVPLWERKLKDLTIAKESNIIRKSETNLNLFEKIEDPKTSKSNALFNANKGQRITSPTGQETSKRLPLFSQPSSSASSNLLRNNKSLNKKVKTKKEEGKER [chain 1 F333A] showed a response of ~41.
